From patent publication US20160194389A1 come the findings set out here.

Assay [1] addresses human neonatal Fc-receptor (FcRn) (human) (UniProt P55899). The assay can be described thus: FcRn affinity chromatography of the knobs-into-holes anti-VEGF/ANG2 antibody.
Assay [2] has the same target. The assay is described as follows: FcRn affinity column chromatography.

Sequence of human neonatal Fc-receptor (FcRn) (human) (P55899 24-297 limits assumed, chain 1 of 2): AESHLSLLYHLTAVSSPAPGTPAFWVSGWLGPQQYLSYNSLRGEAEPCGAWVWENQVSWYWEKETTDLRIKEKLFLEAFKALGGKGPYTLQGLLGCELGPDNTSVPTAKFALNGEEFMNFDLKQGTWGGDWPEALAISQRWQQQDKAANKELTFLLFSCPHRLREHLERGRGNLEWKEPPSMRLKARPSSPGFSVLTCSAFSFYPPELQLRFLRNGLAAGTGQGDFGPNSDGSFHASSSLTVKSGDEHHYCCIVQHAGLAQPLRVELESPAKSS
Sequence of human neonatal Fc-receptor (FcRn) (human) (P61769 21-119 limits assumed, chain 2 of 2, further chain): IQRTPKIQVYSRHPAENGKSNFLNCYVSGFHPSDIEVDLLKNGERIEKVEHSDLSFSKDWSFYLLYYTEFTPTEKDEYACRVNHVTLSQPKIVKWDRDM

As for “bispecific anti-VEGF/ANG2 antibody (knobs-into-holes), first chain with I253A/H310A/H435A and second chain with H310A (bispecific antibody)”, the RT [min] (retention time on the FcRn affinity column) in assay [1] worked out at 0 min. On to “bispecific anti-VEGF/ANG2 antibody (knobs-into-holes), first chain with I253A/H310A/H435A and second chain with H435A (bispecific antibody)”, for which the RT [min] (retention time on the FcRn affinity column) in assay [1] was found to be 0 min. Regarding “bispecific anti-VEGF/ANG2 antibody (knobs-into-holes), first chain with I253A/H310A/H435A and second chain with I253A/H310A/H435A (bispecific antibody)”, the RT [min] (retention time on the FcRn affinity column) in assay [1] turned out to be 0 min. Still for that read-out and setting: to “bispecific anti-VEGF/ANG2 antibody (knobs-into-holes), no FcRn affecting mutation (bispecific antibody)” belongs 52.8 min. Regarding “symmetrically engineered IgG1 Fc-region, L234A/L235A/P329G with Y436A (antibody)”, the FcRn-affinity column retention time in assay [2] turned out to be 41.3 min. Regarding “symmetrically modified anti-HER2 antibody, mutation D98E”, in assay [2], the retention time stood at 46.2 min. Still for that read-out and setting: to “symmetrically modified anti-HER2 antibody, mutation E258H” belongs 45.6 min; to “symmetrically modified anti-HER2 antibody, mutation E430H”, 46.4 min. “symmetrically modified anti-HER2 antibody, mutation K288E” displayed a retention time in assay [2] of 45.2 min. On the same count and under the same terms, as for “symmetrically modified anti-HER2 antibody, mutation K290H”, the figure is 46.2 min. As for “symmetrically modified anti-HER2 antibody, mutation K317H”, the retention time in assay [2] was determined as 46.3 min. “symmetrically modified anti-HER2 antibody, mutation L309H” had a retention time in assay [2] of 45.5 min. On the same count and under the same terms, as for “symmetrically modified anti-HER2 antibody, mutation N434H”, the figure is 52 min; as for “symmetrically modified anti-HER2 antibody, mutation Q311H”, 46.3 min; as for “symmetrically modified anti-HER2 antibody, mutation R255D”, 41.4 min.

Regarding “symmetrically modified anti-HER2 antibody, mutation T256H”, the retention time in assay [2] was found to be 46 min.
